Numbering of substitutions follows the chain as printed. In names and notes the source's numbering stands. Like-named read-outs stand apart in the source and are kept apart here.

Here are results for 8 molecules from PMC2267168, “Competition between Delta and the Abruptex domain of Notch” (BMC Developmental Biology, 2008).

Assay [1] concerns the target T1, N21-30:Fc (Drosophila, UniProt P07207 827-1224).
T1 construct: also called Abruptex region; EGF repeat 21-30 region of Notch; source: Drosophila Schneider cells, transfected, secreted; purified from conditioned medium (Protein A beads); not shown: Fc (human IgG), C-terminal, kept
T1 sequence (looked up): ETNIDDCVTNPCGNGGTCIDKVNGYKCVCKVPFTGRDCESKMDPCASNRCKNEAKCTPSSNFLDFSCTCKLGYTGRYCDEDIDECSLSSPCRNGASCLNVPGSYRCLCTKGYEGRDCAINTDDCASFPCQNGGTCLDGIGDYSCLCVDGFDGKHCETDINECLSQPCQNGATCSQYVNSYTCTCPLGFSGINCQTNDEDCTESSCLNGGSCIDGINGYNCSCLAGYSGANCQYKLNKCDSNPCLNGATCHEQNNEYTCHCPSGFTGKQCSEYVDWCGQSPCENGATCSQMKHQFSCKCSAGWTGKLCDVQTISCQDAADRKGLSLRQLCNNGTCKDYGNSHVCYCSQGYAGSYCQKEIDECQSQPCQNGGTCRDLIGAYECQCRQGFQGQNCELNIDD
Description: ELISA; as the plate assay, at pH 7.4 in citric acid/Na2HPO4 or Tris maleate/NaOH buffer in place of Tris pH 8.0. The settings on record: both partners purified. (ELISA stands for enzyme-linked immunosorbent assay.)

Assay [2] deals with T2, N11-14:V5:His (Drosophila, UniProt P07207 447-605).
T2 chain: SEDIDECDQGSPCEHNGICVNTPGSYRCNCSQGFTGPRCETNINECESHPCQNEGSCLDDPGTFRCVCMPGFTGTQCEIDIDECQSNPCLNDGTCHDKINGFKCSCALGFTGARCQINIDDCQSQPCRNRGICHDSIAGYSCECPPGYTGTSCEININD
In words: ELISA.

Assay [3] has as its target T3, N11-20:V5:His (Drosophila, UniProt P07207 447-832).
T3 chain: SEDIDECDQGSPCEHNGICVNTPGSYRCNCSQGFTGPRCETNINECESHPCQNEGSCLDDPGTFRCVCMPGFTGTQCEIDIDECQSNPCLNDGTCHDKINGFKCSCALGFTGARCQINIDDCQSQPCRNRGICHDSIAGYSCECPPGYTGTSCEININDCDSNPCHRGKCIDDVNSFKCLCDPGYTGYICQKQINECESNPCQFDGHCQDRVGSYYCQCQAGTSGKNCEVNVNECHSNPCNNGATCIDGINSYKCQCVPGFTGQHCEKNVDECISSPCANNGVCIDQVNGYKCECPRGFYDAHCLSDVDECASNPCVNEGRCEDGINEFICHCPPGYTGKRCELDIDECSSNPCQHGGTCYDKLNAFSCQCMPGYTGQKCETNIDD
In words: ELISA.

The target of assay [4] is T3, N11-20:V5:His. In words: ELISA; 200 ng His-tagged protein adsorbed to a 96-well plate at 4°C overnight, blocked with 3% BSA; purified Fc fusion added in TBS (10 mM Tris-Cl pH 8.0, 150 mM NaCl, 1 mM CaCl2) for 2 h; detected with HRP anti-human IgG; half-maximal binding ('Kd') fitted with Prizm, said not to be a true Kd.
Assay [5] addresses T3, N11-20:V5:His. Description: ELISA; pH 5.4.
In assay [6] the target is T3, N11-20:V5:His. In words: ELISA; pH 7.4.
Assay [7] has as its target T2, N11-14:V5:His. Description: ELISA.
Assay [8] has as its target T4, N11-14spl:V5:His (Drosophila, UniProt P07207 447-605, I578T).
T4 sequence: T2 chain with I132T
In words: ELISA.

For assay [9], the target named is T3, N11-20:V5:His. In words: ELISA.
The target of assay [10] is T2, N11-14:V5:His. Description: ELISA.
Assay [11] has as its target T4, N11-14spl:V5:His. In words: ELISA. The source holds these as a separate data set.
Another assay addresses T5, N21-30:V5:His (Drosophila, UniProt P07207 827-1224).
T5 construct: source: Drosophila Schneider cells, transfected, secreted; purified from conditioned medium (ProBond resin)
T5 sequence (looked up): T1 sequence (looked up)
In words: ELISA; competition: 10 ng (2.74 nM) N21-30:Fc or 100 ng (23.2 nM) Dl:Fc on adsorbed N11-20, with increasing amounts of soluble Dl:V5:His or N21-30:V5:His. The note with it: both partners purified.

Assay [12] deals with T1, N21-30:Fc. The description is as above. The note with it: both partners purified.

B1: N11-14:V5:His (domain or fragment, Drosophila, UniProt P07207 447-605, looked up)
chain: T2 chain
notes: also called N11-4:V5:His; EGF repeats 11-14; source: Drosophila Schneider cells, transfected, secreted; purified from conditioned medium (ProBond resin)
Take B1: the binding result in the assay with N21-30:Fc [1] is “binds”.

B2: N11-14spl:V5:His (domain or fragment, Drosophila, UniProt P07207 447-605, looked up)
chain: T2 chain with I132T
notes: Notch, Drosophila, EGF repeats 11-14 with the I578T change of the split (spl) allele in EGF repeat 14; limits as N11-14, Ser447 to Asp605; also called split mutant; source: Drosophila Schneider cells, transfected, secreted; purified from conditioned medium (ProBond resin)
In the case of B2, in the assay with N21-30:Fc [1], the binding result was “binds”.

B3: N22-27:Fc (Fc fusion)
chain: KMDPCASNRCKNEAKCTPSSNFLDFSCTCKLGYTGRYCDEDIDECSLSSPCRNGASCLNVPGSYRCLCTKGYEGRDCAINTDDCASFPCQNGGTCLDGIGDYSCLCVDGFDGKHCETDINECLSQPCQNGATCSQYVNSYTCTCPLGFSGINCQTNDEDCTESSCLNGGSCIDGINGYNCSCLAGYSGANCQYKLNKCDSNPCLNGATCHEQNNEYTCHCPSGFTGKQCS
In general, Kd refers to the equilibrium constant for the complex coming apart. Read a low Kd as tighter binding. B3 registered a Kd with N11-14:V5:His [2] of 0.0126 µM. That is a double-digit nanomolar value.

B4: N21-25:Fc (Fc fusion)
chain: ETNIDDCVTNPCGNGGTCIDKVNGYKCVCKVPFTGRDCESKMDPCASNRCKNEAKCTPSSNFLDFSCTCKLGYTGRYCDEDIDECSLSSPCRNGASCLNVPGSYRCLCTKGYEGRDCAINTDDCASFPCQNGGTCLDGIGDYSCLCVDGFDGKHCETDINECLSQPCQNGATCSQYVNSYTCTCPLGFSGINCQTNDED
On to B4, for which the results for the Kd with N11-14:V5:His [2] and in the assay with N11-20:V5:His [3] were 0.00277 µM and 0.00279 µM, respectively.

B5: Dl:Fc (Fc fusion)
chain: QVHSSGSFELRLKYFSNDHGRDNEGRCCSGESDGATGKCLGSCKTRFRVCLKHYQATIDTTSQCTYGDVITPILGENSVNLTDAQRFQNKGFTNPIQFPFSFSWPGTFSLIVEAWHDTNNSGNARTNKLLIQRLLVQQVLEVSSEWKTNKSESQYTSLEYDFRVTCDLNYYGSGCAKFCRPRDDSFGHSTCSETGEIICLTGWQGDYCHIPKCAKGCEHGHCDKPNQCVCQLGWKGALCNECVLEPNCIHGTCNKPWTCICNEGWGGLYCNQDLNYCTNHRPCKNGGTCFNTGEGLYTCKCAPGYSGDDCENEIYSCDADVNPCQNGGTCIDEPHTKTGYKCHCANGWSGKMCEEKVLTCSDKPCHQGICRNVRPGLGSKGQGYQCECPIGYSGPNCDLQLDNCSPNPCINGGSCQPSGKCICPAGFSGTRCETNIDDCLGHQCENGGTCIDMVNQYRCQCVPGFHGTHCSSKVDLCLIRPCANGGTCLNLNNDYQCTCRAGFTGKDCSVDIDECSSGPCHNGGTCMNRVNSFECVCANGFRGKQCDE
A word on the EC50: it is the concentration needed to bring the measured effect to its halfway point. The low end stands for a more potent agent, the high end for a less potent agent. For the molecule B5, the EC50 with N11-20:V5:His [4] stood at 0.00187 µM. Besides, the Kd with N11-20:V5:His [5] is 0.00458 µM; with N11-20:V5:His [6], 0.0298 µM; with N11-14:V5:His [7] it was 0.0166 µM; with N11-14spl:V5:His [8] it was 0.0234 µM; with N11-20:V5:His [9] it was 0.0251 µM.

B6: N21-30:Fc (Fc fusion)
chain: T1 sequence (looked up)
B6: the Kd with N11-14:V5:His [2] is 0.00542 µM; with N11-20:V5:His [3] it was 0.0045 µM; with N11-20:V5:His [5] it was 0.034 µM; with N11-14:V5:His [10], 0.0213 µM; with N11-14spl:V5:His [11], 0.0289 µM; with N11-20:V5:His [6], 0.0164 µM. Besides, the Kd in the assay with N11-20:V5:His [9] stood at 0.0275 µM.

B7: N26-30:Fc (Fc fusion)
chain: QTNDEDCTESSCLNGGSCIDGINGYNCSCLAGYSGANCQYKLNKCDSNPCLNGATCHEQNNEYTCHCPSGFTGKQCSEYVDWCGQSPCENGATCSQMKHQFSCKCSAGWTGKLCDVQTISCQDAADRKGLSLRQLCNNGTCKDYGNSHVCYCSQGYAGSYCQKEIDECQSQPCQNGGTCRDLIGAYECQCRQGFQGQNCELNIDD
modifications: Fc-dimerised (Fc left out); secreted from S2 cells, O-fucosylation predicted. The forward primer (Q-T-N-D-E-D-C) overlaps the reverse primer ending at Asp1025, so the printed Gln1000 is Gln1020
Molecule B7 registered a Kd with N11-14:V5:His [2] of 0.00281 µM.

B8: N11-20:V5:His (domain or fragment, Drosophila, UniProt P07207 447-832, looked up)
chain: T3 chain
notes: also called EGF repeats 11-20 of the N extracellular domain; source: Drosophila Schneider cells, transfected, secreted; purified from conditioned medium (ProBond resin)
Turning to B8, the binding result with N21-30:V5:His and with N21-30:Fc [12] was “binds” throughout.
